For two substances, ELISA (OD) results are on record in patent publication EP4269437A1.

Several values for one entry are separate records, joined by “and”; a condition that tells them apart may be missing. Equal values may be shown once.

Targets include CD28 (UniProt P10747); CTLA-4 (UniProt P16410); ICOS (UniProt Q9Y6W8).
Holding throughout (assay): ELISA on coated protein, anti-human Fc HRP
(In general: ELISA stands for enzyme-linked immunosorbent assay.)

Assay [1] deals with cynomolgus monkey PD-1 protein (cynomolgus monkey) (UniProt B0LAJ3).
Chain of cynomolgus monkey PD-1 protein (cynomolgus monkey) (B0LAJ3 entry or part of it limits assumed, form in doubt): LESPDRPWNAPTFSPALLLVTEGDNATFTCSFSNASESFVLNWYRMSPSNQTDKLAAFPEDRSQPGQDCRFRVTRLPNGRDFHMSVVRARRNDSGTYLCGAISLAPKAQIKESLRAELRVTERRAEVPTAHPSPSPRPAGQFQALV
For assay [2], the target named is murine PD-1 protein (murine) (UniProt Q02242).
Chain of murine PD-1 protein (murine) (Q02242 25-167 limits assumed): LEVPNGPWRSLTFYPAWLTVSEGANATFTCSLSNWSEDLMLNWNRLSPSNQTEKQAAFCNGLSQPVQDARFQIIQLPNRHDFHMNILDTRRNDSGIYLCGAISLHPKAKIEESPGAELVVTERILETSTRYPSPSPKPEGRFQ

Chain of CTLA-4 (P16410 36-161 limits assumed): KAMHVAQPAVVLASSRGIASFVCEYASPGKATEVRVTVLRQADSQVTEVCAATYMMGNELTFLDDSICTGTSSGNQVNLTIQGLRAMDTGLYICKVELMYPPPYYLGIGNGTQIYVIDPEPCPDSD
Chain of ICOS (Q9Y6W8 21-140 limits assumed): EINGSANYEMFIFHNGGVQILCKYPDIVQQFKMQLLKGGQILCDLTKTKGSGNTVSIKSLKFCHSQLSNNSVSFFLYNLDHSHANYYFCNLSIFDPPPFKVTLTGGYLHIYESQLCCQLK

In the case of Keytruda (antibody), the ELISA (OD) was 0.066 OD and 0.054 OD and 0.053 OD with CD28; 0.09 OD and 0.086 OD and 0.089 OD with CTLA-4; 0.125 OD and 0.107 OD and 0.131 OD with ICOS; 2.22 OD and 2.32 OD in assay [1]; 0.079 OD and 0.088 OD and 0.09 OD in assay [2].

Take Opdivo (antibody): the ELISA (OD) with CD28 was 0.02 OD and 0.021 OD and 0.023 OD; in the assay with CTLA-4, 0.024 OD and 0.022 OD and 0.019 OD; in the assay with ICOS, 0.023 OD and 0.021 OD and 0.022 OD; in assay [1] it was 1.89 OD and 1.79 OD and 1.83 OD; in assay [2] it was 0.024 OD and 0.023 OD.
